Target: T1, EV A71 VLP (Enterovirus A71, UniProt Q66478 2-862)
T1 construct: Multi-subunit particle
T1 sequence: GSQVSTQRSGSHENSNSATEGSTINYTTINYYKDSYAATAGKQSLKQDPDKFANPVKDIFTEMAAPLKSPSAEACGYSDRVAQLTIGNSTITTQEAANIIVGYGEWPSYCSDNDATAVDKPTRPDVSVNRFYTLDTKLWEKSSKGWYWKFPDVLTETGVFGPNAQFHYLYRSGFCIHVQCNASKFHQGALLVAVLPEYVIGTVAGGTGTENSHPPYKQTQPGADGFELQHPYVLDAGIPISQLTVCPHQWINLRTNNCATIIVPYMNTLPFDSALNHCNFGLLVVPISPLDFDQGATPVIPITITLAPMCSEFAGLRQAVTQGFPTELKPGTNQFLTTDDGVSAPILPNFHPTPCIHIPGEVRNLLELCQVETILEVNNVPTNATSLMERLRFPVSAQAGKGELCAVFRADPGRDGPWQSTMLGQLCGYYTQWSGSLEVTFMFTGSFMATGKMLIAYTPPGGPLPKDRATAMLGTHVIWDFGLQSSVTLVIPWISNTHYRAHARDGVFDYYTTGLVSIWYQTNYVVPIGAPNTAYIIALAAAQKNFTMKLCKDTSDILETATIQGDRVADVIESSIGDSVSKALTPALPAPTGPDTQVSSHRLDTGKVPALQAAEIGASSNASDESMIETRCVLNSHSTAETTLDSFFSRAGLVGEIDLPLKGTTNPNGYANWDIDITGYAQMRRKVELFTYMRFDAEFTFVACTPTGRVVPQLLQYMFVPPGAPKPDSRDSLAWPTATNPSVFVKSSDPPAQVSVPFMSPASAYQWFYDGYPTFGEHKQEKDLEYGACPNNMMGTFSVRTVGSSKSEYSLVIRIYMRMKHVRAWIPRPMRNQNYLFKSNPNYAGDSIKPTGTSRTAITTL
Assay: Western blot on denatured VLP

B1: 单克隆抗体3C4 (antibody, mouse IgG1, kappa, V domains shown)
VH: QVTLKESGPGILQPSQTLSLTCSFSGFSLSTSGMGVSWIRQPSGKGLEWLAHIWWDDDKRYNPALKSRLTISKDTSNNQVFLRIASVDTADTATYYCVRIGGYFWGQGTSVTVSS
VL: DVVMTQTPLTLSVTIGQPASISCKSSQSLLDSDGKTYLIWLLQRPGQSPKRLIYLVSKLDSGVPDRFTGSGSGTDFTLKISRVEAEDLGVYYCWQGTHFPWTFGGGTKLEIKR
notes: Mouse IgG1 kappa; also called 3C4单抗; 杂交瘤细胞株3C4
binding result: no binding (tested: 1μg/mL)
